Results reported in publication PMC10156788, “Molecular architecture of the Gαi-bound TRPC5 ion channel” (Nature Communications, 2023).

Columns and labels:
[1] = molecular target: T1, EGFP-tagged human TRPC5EM (amino acids 1 to 765) in lipid nanodiscs (human, UniProt Q9UL62 1-765); assay: cell-based or functional assay
T1 sequence (looked up): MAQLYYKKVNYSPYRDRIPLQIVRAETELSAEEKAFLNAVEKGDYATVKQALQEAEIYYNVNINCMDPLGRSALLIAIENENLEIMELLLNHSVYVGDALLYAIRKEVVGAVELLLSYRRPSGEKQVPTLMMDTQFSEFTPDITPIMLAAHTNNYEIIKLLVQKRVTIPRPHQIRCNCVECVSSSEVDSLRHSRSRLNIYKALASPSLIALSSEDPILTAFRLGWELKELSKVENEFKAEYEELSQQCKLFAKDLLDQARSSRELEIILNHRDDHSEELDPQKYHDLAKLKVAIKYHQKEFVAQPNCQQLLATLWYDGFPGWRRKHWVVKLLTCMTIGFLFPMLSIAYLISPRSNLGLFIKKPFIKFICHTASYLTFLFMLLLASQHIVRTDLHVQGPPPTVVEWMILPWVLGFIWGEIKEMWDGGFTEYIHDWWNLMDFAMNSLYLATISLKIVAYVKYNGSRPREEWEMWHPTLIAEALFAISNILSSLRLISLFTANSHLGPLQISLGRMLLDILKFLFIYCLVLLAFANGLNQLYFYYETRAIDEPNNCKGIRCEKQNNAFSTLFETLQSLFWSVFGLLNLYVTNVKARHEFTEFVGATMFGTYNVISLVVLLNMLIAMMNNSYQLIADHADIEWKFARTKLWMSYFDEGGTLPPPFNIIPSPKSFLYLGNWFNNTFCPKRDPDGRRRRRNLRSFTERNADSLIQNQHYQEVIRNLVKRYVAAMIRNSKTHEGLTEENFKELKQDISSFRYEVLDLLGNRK

[2] = molecular target: T2, human TRPC5 (amino acids 1 to 765, TRPC5EM) in lipid nanodiscs, EGFP and Twin-StrepII-tag removed (human, UniProt Q9UL62 1-765); assay: cryo-EM structure; TRPC5EM in MSP2N2/soybean lipid nanodiscs, alone or mixed with GTP-activated N-myristoylated Gαi3^Q204L at Gα:TRPC5 monomer = 6:1; Buffer A (50 mM Tris-HCl pH 8.0, 150 mM NaCl, 1 mM DTT) with 5 μM GTP; 2.5 mM CaCl2 added before vitrification; no PIP2; conditions: both partners purified
T2 construct: transient receptor potential canonical 5 (TRPC5), human, amino acids 1 to 765; C-terminal loop region (residues 766-973) truncated; Tags removed with HRV-3C protease after the complex with Gαi3 was formed; residues of the HRV-3C site may be left at the C-terminus; Reconstituted in MSP2N2 nanodiscs; also called TRPC5_(Class1); TRPC5_(Class2); source: HEK293S GnTI- suspension cells (BacMam), …
T2 sequence (looked up): T1 sequence (looked up)

[3] = molecular target: T1, EGFP-tagged human TRPC5EM (amino acids …); assay: BLI; BLItz, AR2G biosensors; EGFP-tagged TRPC5 in lipid nanodiscs (500 nM) immobilised by NHS/EDC; GTP-activated Gαi3^Q204L flowed at 0.31-1.25 μM, 300 s association, 300 s dissociation; 20 mM HEPES-NaOH pH 8.0, 150 mM NaCl; fitted by specific binding with Hill slope; conditions: both partners purified

fold increase in open probability (Po) by Gαi3 (14.6 μM against 0.07 μM) at physiological PIP2, excised inside-out patch [1]: ~7 fold
stoichiometry N [2]: ≤ 4 Gαi3 per TRPC5 tetramer
Kd [3]: 530 nM
B1: N-myristoylated human Gαi3^Q204L, GTP-activated (natural protein)
chain: TLSAEDKAAVERSKMIDRNLREDGEKAAKEVKLLLLGAGESGKSTIVKQMKIIHEDGYSEDECKQYKVVVYSNTIQSIIAIIRAMGRLKIDFGEAARADDARQLFVLAGSAEEGVMTPELAGVIKRLWRDGGVQACFSRSREYQLNDSASYYLNDLDRISQSNYIPTQQDVLRTRVKTTGIVETHFTFKDLYFKMFDVGGLRSERKKWIHCFEGVTAIIFCVALSDYDLVLAEDEEMNRMHESMKLFDSICNNKWFTETSIILFLNKKDLFEEKIKRSPLTICYPEYTGSNTYEEAAAYIQCQFEDLNRRKDTKEIYTHFTCATDTKNVQFVFDAVTDVIIKNNLKE
modifications: myristoylation at the N-terminal glycine
notes: hexa-histidine tag inserted between M119 and T120; Incubated with 1 mM GTP for 1 h at 30 °C before use; The His tag is internal and no cleavage is described; Myristoylation of the N-terminal glycine implies loss of the first methionine; also called myristoylated Gαi3^Q204L
